Laboratory results as given in publication PMC8381054.

Assays:
[1] = biological target: human CR2(SCR1-4)-Fc (human)
[2] = biological target: recombinant wild-type human C3d with its native thioester cysteine intact (C3d^17C) (human) (UniProt P01024); assay: SEC; size exclusion chromatography of C3d^17C in solution (Supplementary Figure S2); monomer and disulphide-linked dimer
[3] = biological target: recombinant wild-type human C3d with its native thioester cysteine intact (C3d^17C) (human) (UniProt P01024); assay: non-reducing SDS-PAGE; recombinant C3d^17C 'under non-reducing conditions', 'in a similar manner' to C3b (Supplementary Figure S2, not shown)

| Substance | geometric mean EC50 of upregulation of CD69 on CD19+ B cells in human PBMC, with anti-IgM F(ab')2 [1] [nM] | geometric mean EC50 of upregulation of CD86 on CD19+ B cells in human PBMC, with anti-IgM F(ab')2 [1] [nM] | stoichiometry N [2] | stoichiometry N [3] |
| --- | --- | --- | --- | --- |
| chemically-linked dimeric C3d^17C (from UniProt P01024 996-1303) | 47 | 18 |  |  |
| human C3d with a Cys to Ala mutation at position 17(C3d)/1010 (pre-pro C3) (C3d^17A) (from UniProt P01024 996-1303) (domain or fragment) | 139 | 59 |  |  |
| recombinant wild-type human C3d with its native thioester cysteine intact (C3d^17C) (from UniProt P01024 996-1303) (domain or fragment) |  |  | 2 | 2 |
